{"source": "paper PMC10491969", "about": "(Journal of Advanced Research, 2022)", "target": "T1, Recombinant human TRAF2 protein (human, UniProt Q12933 1-501)", "T1 sequence (looked up)": "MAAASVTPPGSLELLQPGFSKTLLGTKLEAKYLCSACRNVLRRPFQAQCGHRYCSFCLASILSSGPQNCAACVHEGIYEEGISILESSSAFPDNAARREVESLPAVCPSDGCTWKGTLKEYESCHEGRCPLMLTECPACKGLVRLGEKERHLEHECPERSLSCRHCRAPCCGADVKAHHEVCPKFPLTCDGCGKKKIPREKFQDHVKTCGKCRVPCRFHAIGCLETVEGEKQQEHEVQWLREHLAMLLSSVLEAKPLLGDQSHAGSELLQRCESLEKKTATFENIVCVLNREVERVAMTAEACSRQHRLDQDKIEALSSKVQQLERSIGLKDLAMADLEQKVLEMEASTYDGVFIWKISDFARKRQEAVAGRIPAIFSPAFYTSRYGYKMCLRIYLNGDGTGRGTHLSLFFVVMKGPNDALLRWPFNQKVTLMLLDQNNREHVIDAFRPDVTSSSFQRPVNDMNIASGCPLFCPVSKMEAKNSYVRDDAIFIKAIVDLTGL", "experiment": "SPR"}
{"binder": "Recombinant human STING protein (natural protein, UniProt Q86WV6 135-379, looked up) GLKGLAPAEISAVCEKGNFNVAHGLAWSYYIGYLRLILPELQARIRTYNQHYNNLLRGAVSQRLYILLPLDCGVPDNLSMADPNIRFLDKLPQQTGDHAGIKDRVYSNSIYELLENGQRAGTCVLEYATPLQTLFAMSQYSQAGFSREDRLEQAKLFCRTLEDILADAPESQNNCRLIAYQEPADDSSFSLSQEVLRHLRQEEKEEVTVGSLKTSAVPSTSTMSQEPELLISGMEKPLPLRTDFS", "values": [{"measurement": "Kd", "value": 502, "unit": "nM"}]}
